Test results published in US20130210709A1 (ANCHOR THERAPEUTICS, published 2013).
Ends that are not written are not given here. * marks the point of attachment. Palmitoyl = CCCCCCCCCCCCCCCC(=O)*; NHhexadecyl = CCCCCCCCCCCCCCCCN*

B1: Compound No. 44 (Pal-KKLRSMTDKYRL-amide) (peptide)
peptide: Palmitoyl-KKLRSMTDKYRL-NH2
SMILES: CCCCCCCCCCCCCCCC(=O)N[C@@H](CCCCN)C(=O)N[C@@H](CCCCN)C(=O)N[C@@H](CC(C)C)C(=O)N[C@@H](CCCNC(=N)N)C(=O)N[C@@H](CO)C(=O)N[C@@H](CCSC)C(=O)N[C@H](C(=O)N[C@@H](CC(=O)O)C(=O)N[C@@H](CCCCN)C(=O)N[C@@H](Cc1ccc(O)cc1)C(=O)N[C@@H](CCCNC(=N)N)C(=O)N[C@@H](CC(C)C)C(N)=O)[C@@H](C)O
B2: CXCR4 i1 loop compound 69 (peptide)
peptide: Palmitoyl-SGYQKKLRSSTD-NH2
SMILES: CCCCCCCCCCCCCCCC(=O)N[C@@H](CO)C(=O)NCC(=O)N[C@@H](Cc1ccc(O)cc1)C(=O)N[C@@H](CCC(N)=O)C(=O)N[C@@H](CCCCN)C(=O)N[C@@H](CCCCN)C(=O)N[C@@H](CC(C)C)C(=O)N[C@@H](CCCNC(=N)N)C(=O)N[C@@H](CO)C(=O)N[C@@H](CO)C(=O)N[C@H](C(=O)N[C@@H](CC(=O)O)C(N)=O)[C@@H](C)O
B3: CXCR4 i1 loop compound 55 (peptide)
peptide: Palmitoyl-MGYQKKLRSMTDKYRLHLSV-NH2
SMILES: CCCCCCCCCCCCCCCC(=O)N[C@@H](CCSC)C(=O)NCC(=O)N[C@@H](Cc1ccc(O)cc1)C(=O)N[C@@H](CCC(N)=O)C(=O)N[C@@H](CCCCN)C(=O)N[C@@H](CCCCN)C(=O)N[C@@H](CC(C)C)C(=O)N[C@@H](CCCNC(=N)N)C(=O)N[C@@H](CO)C(=O)N[C@@H](CCSC)C(=O)N[C@H](C(=O)N[C@@H](CC(=O)O)C(=O)N[C@@H](CCCCN)C(=O)N[C@@H](Cc1ccc(O)cc1)C(=O)N[C@@H](CCCNC(=N)N)C(=O)N[C@@H](CC(C)C)C(=O)N[C@@H](Cc1c[nH]cn1)C(=O)N[C@@H](CC(C)C)C(=O)N[C@@H](CO)C(=O)N[C@H](C(N)=O)C(C)C)[C@@H](C)O
B4: CXCR-4 receptor Compound No. 43 (peptide)
peptide: Palmitoyl-KKLRSMTDKYRLH-NH2
SMILES: CCCCCCCCCCCCCCCC(=O)N[C@@H](CCCCN)C(=O)N[C@@H](CCCCN)C(=O)N[C@@H](CC(C)C)C(=O)N[C@@H](CCCNC(=N)N)C(=O)N[C@@H](CO)C(=O)N[C@@H](CCSC)C(=O)N[C@H](C(=O)N[C@@H](CC(=O)O)C(=O)N[C@@H](CCCCN)C(=O)N[C@@H](Cc1ccc(O)cc1)C(=O)N[C@@H](CCCNC(=N)N)C(=O)N[C@@H](CC(C)C)C(=O)N[C@@H](Cc1c[nH]cn1)C(N)=O)[C@@H](C)O
B5: CXCR4 i1 loop compound 49 (peptide)
peptide: Palmitoyl-MGYQKKLRSMTDKYRI-NH2
SMILES: CCCCCCCCCCCCCCCC(=O)N[C@@H](CCSC)C(=O)NCC(=O)N[C@@H](Cc1ccc(O)cc1)C(=O)N[C@@H](CCC(N)=O)C(=O)N[C@@H](CCCCN)C(=O)N[C@@H](CCCCN)C(=O)N[C@@H](CC(C)C)C(=O)N[C@@H](CCCNC(=N)N)C(=O)N[C@@H](CO)C(=O)N[C@@H](CCSC)C(=O)N[C@H](C(=O)N[C@@H](CC(=O)O)C(=O)N[C@@H](CCCCN)C(=O)N[C@@H](Cc1ccc(O)cc1)C(=O)N[C@@H](CCCNC(=N)N)C(=O)N[C@H](C(N)=O)[C@@H](C)CC)[C@@H](C)O
B6: CXCR4 i1 loop compound 54 (peptide)
peptide: MGYQKKLRSMTDKYRLHL-NH2
modifications: not fully specified (N-terminus); also: N-terminal T-L: Myr, dual lipid backbone
B7: CXCR4 i1 loop compound 59 (peptide)
peptide: Ac-MGYQKKLRSMTDK-NHhexadecyl
SMILES: CCCCCCCCCCCCCCCCNC(=O)[C@H](CCCCN)NC(=O)[C@H](CC(=O)O)NC(=O)[C@@H](NC(=O)[C@H](CCSC)NC(=O)[C@H](CO)NC(=O)[C@H](CCCNC(=N)N)NC(=O)[C@H](CC(C)C)NC(=O)[C@H](CCCCN)NC(=O)[C@H](CCCCN)NC(=O)[C@H](CCC(N)=O)NC(=O)[C@H](Cc1ccc(O)cc1)NC(=O)CNC(=O)[C@H](CCSC)NC(C)=O)[C@@H](C)O
B8: CXCR4 i1 loop compound 46 (peptide)
peptide: Palmitoyl-KKLRSMTDKY-NH2
SMILES: CCCCCCCCCCCCCCCC(=O)N[C@@H](CCCCN)C(=O)N[C@@H](CCCCN)C(=O)N[C@@H](CC(C)C)C(=O)N[C@@H](CCCNC(=N)N)C(=O)N[C@@H](CO)C(=O)N[C@@H](CCSC)C(=O)N[C@H](C(=O)N[C@@H](CC(=O)O)C(=O)N[C@@H](CCCCN)C(=O)N[C@@H](Cc1ccc(O)cc1)C(N)=O)[C@@H](C)O
B9: CXCR4 i1 loop compound 45 (peptide)
peptide: Palmitoyl-KKLRSMTDKYR-NH2
SMILES: CCCCCCCCCCCCCCCC(=O)N[C@@H](CCCCN)C(=O)N[C@@H](CCCCN)C(=O)N[C@@H](CC(C)C)C(=O)N[C@@H](CCCNC(=N)N)C(=O)N[C@@H](CO)C(=O)N[C@@H](CCSC)C(=O)N[C@H](C(=O)N[C@@H](CC(=O)O)C(=O)N[C@@H](CCCCN)C(=O)N[C@@H](Cc1ccc(O)cc1)C(=O)N[C@@H](CCCNC(=N)N)C(N)=O)[C@@H](C)O
B10: CXCR4 i1 loop compound 35 (peptide)
peptide: Palmitoyl-VMGYQKKLRSMTD-NH2
SMILES: CCCCCCCCCCCCCCCC(=O)N[C@H](C(=O)N[C@@H](CCSC)C(=O)NCC(=O)N[C@@H](Cc1ccc(O)cc1)C(=O)N[C@@H](CCC(N)=O)C(=O)N[C@@H](CCCCN)C(=O)N[C@@H](CCCCN)C(=O)N[C@@H](CC(C)C)C(=O)N[C@@H](CCCNC(=N)N)C(=O)N[C@@H](CO)C(=O)N[C@@H](CCSC)C(=O)N[C@H](C(=O)N[C@@H](CC(=O)O)C(N)=O)[C@@H](C)O)C(C)C

Target: CXCR4 receptor (human, UniProt P61073 1-352)
Sequence (P61073 whole entry): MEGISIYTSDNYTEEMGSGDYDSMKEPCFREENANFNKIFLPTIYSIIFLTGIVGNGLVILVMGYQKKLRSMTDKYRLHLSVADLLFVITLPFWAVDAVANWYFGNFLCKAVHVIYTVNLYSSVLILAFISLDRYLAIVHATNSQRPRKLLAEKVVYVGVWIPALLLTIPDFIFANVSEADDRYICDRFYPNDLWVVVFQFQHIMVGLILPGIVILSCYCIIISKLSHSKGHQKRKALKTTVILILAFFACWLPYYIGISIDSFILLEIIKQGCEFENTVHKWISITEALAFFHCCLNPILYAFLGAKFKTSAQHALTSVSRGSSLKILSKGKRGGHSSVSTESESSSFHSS
Assay: cell-based or functional assay

| Binder | AUC (% of), CHTX, SUP B-15, 1.0 uM [%] | Max (% of), CHTX, SUP B-15, 1.0 uM [%] | Peak Ratio, CHTX, SUP B-15, 1.0 uM | AUC (% of), CHTX, CEM, 1.0 uM [%] | Max (% of), CHTX, CEM, 1.0 uM [%] | Peak Ratio, CHTX, CEM, 1.0 uM | other results |
| --- | --- | --- | --- | --- | --- | --- | --- |
| B1 | 25.9 | 31.5 | 0.2 | – | – | – | – |
| B2 | – | – | – | 100 | 93.1 | 1 | – |
| MGYQKKLRSMTD-NH2 (not fully specified (N-terminus); also: further groups not given here) [CXCR4 i1 loop compound 33] | – | – | – | – | – | 1 | – |
| B3 | – | – | – | – | – | 0.2 | – |
| B4 | 70.8 | 55.8 | 0.04 | – | – | – | Peak Ratio, CHTX, CEM, 0.01 uM: 1; Peak Ratio, CHTX, CEM, 0.03 uM: 1; Peak Ratio, CHTX, CEM, 0.1 uM: 0.2; Peak Ratio, CHTX, CEM, 0.3 uM: 0.04; Peak Ratio, CHTX, CEM, 3.0 uM: 0.2 |
| B5 | – | – | – | 50.9 | 62.7 | 0.2 | – |
| B6 | – | – | – | – | – | 1 | – |
| B7 | – | – | – | 69 | 84.5 | 1 | AUC (% of), CHTX, CEM, 1.0 um: 51.6%; Max (% of), CHTX, CEM, 1.0 um: 59.8%; Peak Ratio, CHTX, CEM, 1.0 um: 1 |
| B8 | 87.2 | 82.9 | 0.2 | – | – | – | – |
| B9 | 178 | 194 | 1 | – | – | – | – |
| MGYQKKLRSMTDKYRI-NH2 (not fully specified (N-terminus); also: further groups not given here) [CXCR4 i1 loop compound 48] | – | – | – | 53 | 53.5 | 5 | – |
| B10 | 31.7 | 49.3 | 0.2 | 57.9 | 57 | 1 | – |
